According to patent US20250361268A1, “NOVEL ANTI-INFLAMMATORY PEPTIDE AND USE THEREOF” (NOVACELL TECHNOLOGY INC., priority 2022, published 2025):

T1: formyl peptide receptor 2 (FPR2) (UniProt P25090 1-351, limits assumed)
T1 sequence (looked up): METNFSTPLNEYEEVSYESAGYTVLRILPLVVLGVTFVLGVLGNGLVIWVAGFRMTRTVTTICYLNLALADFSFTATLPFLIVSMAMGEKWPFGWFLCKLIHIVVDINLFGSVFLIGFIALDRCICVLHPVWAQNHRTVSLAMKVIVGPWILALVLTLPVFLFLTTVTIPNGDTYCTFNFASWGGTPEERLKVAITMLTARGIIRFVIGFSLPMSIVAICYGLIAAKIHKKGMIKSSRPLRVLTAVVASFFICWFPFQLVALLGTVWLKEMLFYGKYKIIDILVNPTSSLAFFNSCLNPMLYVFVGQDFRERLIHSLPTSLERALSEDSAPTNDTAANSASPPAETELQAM

T2: FPR1 (UniProt P21462 1-350, limits assumed)
T2 sequence (looked up): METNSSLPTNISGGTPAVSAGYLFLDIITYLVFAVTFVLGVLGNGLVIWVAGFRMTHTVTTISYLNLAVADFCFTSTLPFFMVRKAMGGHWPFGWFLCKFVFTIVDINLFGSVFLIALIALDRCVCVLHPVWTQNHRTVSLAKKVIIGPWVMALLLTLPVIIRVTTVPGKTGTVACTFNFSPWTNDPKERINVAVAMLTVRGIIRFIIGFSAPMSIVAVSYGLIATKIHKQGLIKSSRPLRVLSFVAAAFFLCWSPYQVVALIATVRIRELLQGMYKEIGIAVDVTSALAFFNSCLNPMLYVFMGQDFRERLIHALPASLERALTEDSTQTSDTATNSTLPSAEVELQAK


How the values were obtained:
[1] = target: T1, formyl peptide receptor 2 (FPR2); test: cell-based or functional assay
FPR1 = target: T2, FPR1; test: cell-based or functional assay

| Binder | EC50 for [Ca2+] [1] [µM] | EC50 for [Ca2+] (FPR1) [µM] |
| --- | --- | --- |
| MRYKVM (HELM PEPTIDE1{[CCCC(=O)[*:2]].M.R.Y.K.V.[dM].[am]}$$$$V2.0; SMILES CCCC(=O)N[C@@H](CCSC)C(=O)N[C@@H](CCCNC(=N)N)C(=O)N[C@@H](Cc1ccc(O)cc1)C(=O)N[C@@H](CCCCN)C(=O)N[C@H](C(=O)N[C@H](CCSC)C(N)=O)C(C)C) [peptide of SEQ ID NO 15] | < 0.01 | > 10 |
| HMKYKVM (HELM PEPTIDE1{[CCCC(=O)[*:2]].H.M.K.Y.K.V.[dM].[am]}$$$$V2.0; SMILES CCCC(=O)N[C@@H](Cc1c[nH]cn1)C(=O)N[C@@H](CCSC)C(=O)N[C@@H](CCCCN)C(=O)N[C@@H](Cc1ccc(O)cc1)C(=O)N[C@@H](CCCCN)C(=O)N[C@H](C(=O)N[C@H](CCSC)C(N)=O)C(C)C) [peptide of SEQ ID NO 23] | < 0.01 | > 10 |
| PMKYKVM (HELM PEPTIDE1{P.M.K.Y.K.V.[dM].[am]}$$$$V2.0; N-terminus assumed; SMILES CSCC[C@H](NC(=O)[C@@H]1CCCN1)C(=O)N[C@@H](CCCCN)C(=O)N[C@@H](Cc1ccc(O)cc1)C(=O)N[C@@H](CCCCN)C(=O)N[C@H](C(=O)N[C@H](CCSC)C(N)=O)C(C)C) [peptide of SEQ ID NO 25] | < 0.01 | > 10 |
| MKYKVM (HELM PEPTIDE1{[ac].M.K.Y.K.V.[dM].[am]}$$$$V2.0; SMILES CSCC[C@H](NC(C)=O)C(=O)N[C@@H](CCCCN)C(=O)N[C@@H](Cc1ccc(O)cc1)C(=O)N[C@@H](CCCCN)C(=O)N[C@H](C(=O)N[C@H](CCSC)C(N)=O)C(C)C) [peptide of SEQ ID NO 18] | < 0.01 | > 10 |
| IKYKPM (HELM PEPTIDE1{[CCCC(=O)[*:2]].I.K.Y.K.P.[dM].[am]}$$$$V2.0; SMILES CCCC(=O)N[C@H](C(=O)N[C@@H](CCCCN)C(=O)N[C@@H](Cc1ccc(O)cc1)C(=O)N[C@@H](CCCCN)C(=O)N1CCC[C@H]1C(=O)N[C@H](CCSC)C(N)=O)[C@@H](C)CC) [peptide of SEQ ID NO 144] | < 0.01 | > 10 |
| IKYKPM (HELM PEPTIDE1{[ac].I.K.Y.K.P.[dM].[am]}$$$$V2.0; SMILES CC[C@H](C)[C@H](NC(C)=O)C(=O)N[C@@H](CCCCN)C(=O)N[C@@H](Cc1ccc(O)cc1)C(=O)N[C@@H](CCCCN)C(=O)N1CCC[C@H]1C(=O)N[C@H](CCSC)C(N)=O) [peptide of SEQ ID NO 143] | < 0.01 | > 10 |
| HMKYKVM (HELM PEPTIDE1{[CCCCCCCC(=O)[*:2]].H.M.K.Y.K.V.[dM].[am]}$$$$V2.0; SMILES CCCCCCCC(=O)N[C@@H](Cc1c[nH]cn1)C(=O)N[C@@H](CCSC)C(=O)N[C@@H](CCCCN)C(=O)N[C@@H](Cc1ccc(O)cc1)C(=O)N[C@@H](CCCCN)C(=O)N[C@H](C(=O)N[C@H](CCSC)C(N)=O)C(C)C) [peptide of SEQ ID NO 24] | < 0.01 | > 10 |
| MKYKVM (HELM PEPTIDE1{[CCCC(=O)[*:2]].M.K.Y.K.V.[dM].[am]}$$$$V2.0; SMILES CCCC(=O)N[C@@H](CCSC)C(=O)N[C@@H](CCCCN)C(=O)N[C@@H](Cc1ccc(O)cc1)C(=O)N[C@@H](CCCCN)C(=O)N[C@H](C(=O)N[C@H](CCSC)C(N)=O)C(C)C) [peptide of SEQ ID NO 19] | < 0.01 | > 10 |
| IKYKPM (HELM PEPTIDE1{I.K.Y.K.P.[dM].[am]}$$$$V2.0; N-terminus assumed; SMILES CC[C@H](C)[C@H](N)C(=O)N[C@@H](CCCCN)C(=O)N[C@@H](Cc1ccc(O)cc1)C(=O)N[C@@H](CCCCN)C(=O)N1CCC[C@H]1C(=O)N[C@H](CCSC)C(N)=O) [peptide of SEQ ID NO 142] | < 0.01 | > 10 |
| HMKYKVM (HELM PEPTIDE1{H.M.K.Y.K.V.[dM].[am]}$$$$V2.0; N-terminus assumed; SMILES CSCC[C@H](NC(=O)[C@@H](N)Cc1c[nH]cn1)C(=O)N[C@@H](CCCCN)C(=O)N[C@@H](Cc1ccc(O)cc1)C(=O)N[C@@H](CCCCN)C(=O)N[C@H](C(=O)N[C@H](CCSC)C(N)=O)C(C)C) [peptide of SEQ ID NO 21] | < 0.01 | > 10 |
| MKYKVM (HELM PEPTIDE1{M.K.Y.K.V.[dM].[am]}$$$$V2.0; N-terminus assumed; SMILES CSCC[C@H](N)C(=O)N[C@@H](CCCCN)C(=O)N[C@@H](Cc1ccc(O)cc1)C(=O)N[C@@H](CCCCN)C(=O)N[C@H](C(=O)N[C@H](CCSC)C(N)=O)C(C)C) [peptide of SEQ ID NO 17] | < 0.01 | > 10 |
| HMKYKVM (HELM PEPTIDE1{[ac].H.M.K.Y.K.V.[dM].[am]}$$$$V2.0; SMILES CSCC[C@H](NC(=O)[C@H](Cc1c[nH]cn1)NC(C)=O)C(=O)N[C@@H](CCCCN)C(=O)N[C@@H](Cc1ccc(O)cc1)C(=O)N[C@@H](CCCCN)C(=O)N[C@H](C(=O)N[C@H](CCSC)C(N)=O)C(C)C) [peptide of SEQ ID NO 22] | < 0.01 | > 10 |

Second part, the binder after the results:

| EC50 for [Ca2+] [1] [µM] | EC50 for [Ca2+] (FPR1) [µM] | Binder |
| --- | --- | --- |
| < 0.01 | > 10 | RWRYTYM (HELM PEPTIDE1{R.W.R.Y.T.Y.[dM].[am]}$$$$V2.0; N-terminus assumed; SMILES CSCC[C@@H](NC(=O)[C@H](Cc1ccc(O)cc1)NC(=O)[C@@H](NC(=O)[C@H](Cc1ccc(O)cc1)NC(=O)[C@H](CCCNC(=N)N)NC(=O)[C@H](Cc1c[nH]c2ccccc12)NC(=O)[C@@H](N)CCCNC(=N)N)[C@@H](C)O)C(N)=O) [peptide of SEQ ID NO 157] |
| < 0.01 | > 10 | RWRYFYM (HELM PEPTIDE1{R.W.R.Y.F.Y.[dM].[am]}$$$$V2.0; N-terminus assumed; SMILES CSCC[C@@H](NC(=O)[C@H](Cc1ccc(O)cc1)NC(=O)[C@H](Cc1ccccc1)NC(=O)[C@H](Cc1ccc(O)cc1)NC(=O)[C@H](CCCNC(=N)N)NC(=O)[C@H](Cc1c[nH]c2ccccc12)NC(=O)[C@@H](N)CCCNC(=N)N)C(N)=O) [peptide of SEQ ID NO 156] |
| < 0.01 | > 10 | HKYKPM (HELM PEPTIDE1{[CCCC(=O)[*:2]].H.K.Y.K.P.[dM].[am]}$$$$V2.0; SMILES CCCC(=O)N[C@@H](Cc1c[nH]cn1)C(=O)N[C@@H](CCCCN)C(=O)N[C@@H](Cc1ccc(O)cc1)C(=O)N[C@@H](CCCCN)C(=O)N1CCC[C@H]1C(=O)N[C@H](CCSC)C(N)=O) [peptide of SEQ ID NO 148] |
| < 0.01 | > 10 | HKYKPM (HELM PEPTIDE1{[CCCCCCCC(=O)[*:2]].H.K.Y.K.P.[dM].[am]}$$$$V2.0; SMILES CCCCCCCC(=O)N[C@@H](Cc1c[nH]cn1)C(=O)N[C@@H](CCCCN)C(=O)N[C@@H](Cc1ccc(O)cc1)C(=O)N[C@@H](CCCCN)C(=O)N1CCC[C@H]1C(=O)N[C@H](CCSC)C(N)=O) [peptide of SEQ ID NO 149] |
| < 0.01 | > 10 | HKYKPM (HELM PEPTIDE1{H.K.Y.K.P.[dM].[am]}$$$$V2.0; N-terminus assumed; SMILES CSCC[C@@H](NC(=O)[C@@H]1CCCN1C(=O)[C@H](CCCCN)NC(=O)[C@H](Cc1ccc(O)cc1)NC(=O)[C@H](CCCCN)NC(=O)[C@@H](N)Cc1c[nH]cn1)C(N)=O) [peptide of SEQ ID NO 146] |
| < 0.01 | > 10 | HKYKPM (HELM PEPTIDE1{[ac].H.K.Y.K.P.[dM].[am]}$$$$V2.0; SMILES CSCC[C@@H](NC(=O)[C@@H]1CCCN1C(=O)[C@H](CCCCN)NC(=O)[C@H](Cc1ccc(O)cc1)NC(=O)[C@H](CCCCN)NC(=O)[C@H](Cc1c[nH]cn1)NC(C)=O)C(N)=O) [peptide of SEQ ID NO 147] |
| < 0.01 | > 10 | RWRYLYM (HELM PEPTIDE1{R.W.R.Y.L.Y.[dM].[am]}$$$$V2.0; N-terminus assumed; SMILES CSCC[C@@H](NC(=O)[C@H](Cc1ccc(O)cc1)NC(=O)[C@H](CC(C)C)NC(=O)[C@H](Cc1ccc(O)cc1)NC(=O)[C@H](CCCNC(=N)N)NC(=O)[C@H](Cc1c[nH]c2ccccc12)NC(=O)[C@@H](N)CCCNC(=N)N)C(N)=O) [peptide of SEQ ID NO 154] |
